According to article PMC11432007:

Target: GABAA receptor β2 subunit extracellular domain fragment Gln25–Gly243 (human (abstract, Figure 1); 'bovine gene' in the methods) (UniProt P47870)
Test: negative staining electron microscopy; single refolded subunit fragment, dialysed into 10 mM glycine pH 10.3; 2% uranyl acetate on carbon-coated copper grid, 120 kV TEM; 2D classification in Relion from manually picked particles of 20 micrographs

stoichiometry N: 5
Substance: GABAA receptor β2 subunit extracellular domain fragment Gln25–Gly243 (from UniProt P47870 25-243) (domain or fragment)
